Tests used:
Test in all cases: holdup assay
Parameters in all cases: key: below the threshold = too weak to quantify, mostly under pKd 3.1 to 4
RAPGEF6, Q8TEU7 = target: T1, RAPGEF6, Q8TEU7
T1 sequence (Q8TEU7 525-625, limits assumed, looked up): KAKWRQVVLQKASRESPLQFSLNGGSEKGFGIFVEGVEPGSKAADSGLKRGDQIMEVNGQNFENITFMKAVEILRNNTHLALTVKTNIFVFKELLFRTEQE

GOPC, Q9HD26 = target: GOPC, Q9HD26
TJP2_1, Q9UDY2 = target: TJP2_1, Q9UDY2
MAGI1_2, Q96QZ7 = target: MAGI1_2, Q96QZ7
LAP2, Q96RT1 = target: LAP2, Q96RT1
Sequence of LAP2, Q96RT1 (Q96RT1 other isoform, or with tags, fused parts or gaps): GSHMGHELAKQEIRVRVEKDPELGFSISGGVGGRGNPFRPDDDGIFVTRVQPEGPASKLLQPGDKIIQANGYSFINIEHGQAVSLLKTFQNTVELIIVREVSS

TJP1_2, Q07157 = target: TJP1_2, Q07157
Sequence of TJP1_2, Q07157 (Q07157 181-274): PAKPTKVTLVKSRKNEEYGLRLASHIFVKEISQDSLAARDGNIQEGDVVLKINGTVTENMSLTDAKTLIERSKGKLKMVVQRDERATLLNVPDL

DLG4_1, P78352 = target: DLG4_1, P78352
Sequence of DLG4_1, P78352 (P78352 62-152): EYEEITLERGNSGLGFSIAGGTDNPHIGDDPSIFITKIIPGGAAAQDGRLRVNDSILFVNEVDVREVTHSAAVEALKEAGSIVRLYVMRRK

GRIP1_3, Q9Y3R0 = target: T2, GRIP1_3, Q9Y3R0
T2 sequence (Q9Y3R0 247-346, limits assumed, looked up): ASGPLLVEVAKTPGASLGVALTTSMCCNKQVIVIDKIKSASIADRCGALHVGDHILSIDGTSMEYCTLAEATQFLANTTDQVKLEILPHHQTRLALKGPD

GORASP2, Q9H8Y8 = target: GORASP2, Q9H8Y8
DLG1_2, Q12959 = target: DLG1_2, Q12959
Sequence of DLG1_2, Q12959 (Q12959 314-412): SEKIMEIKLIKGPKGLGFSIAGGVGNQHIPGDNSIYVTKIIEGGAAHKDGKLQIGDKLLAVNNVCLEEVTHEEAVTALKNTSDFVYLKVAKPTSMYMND

PCLO, Q9Y6V0 = target: T3, PCLO, Q9Y6V0
T3 sequence (Q9Y6V0 4491-4600, limits assumed, looked up): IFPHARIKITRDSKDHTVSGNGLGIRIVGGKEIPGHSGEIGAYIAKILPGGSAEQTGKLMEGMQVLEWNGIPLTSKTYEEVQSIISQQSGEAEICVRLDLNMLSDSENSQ

FRMPD3, Q5JV73 = target: FRMPD3, Q5JV73
Sequence of FRMPD3, Q5JV73 (Q5JV73 12-100): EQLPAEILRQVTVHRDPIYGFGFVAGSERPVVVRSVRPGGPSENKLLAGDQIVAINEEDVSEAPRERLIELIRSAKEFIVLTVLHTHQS

GRIP1_7, Q9Y3R0 = target: T4, GRIP1_7, Q9Y3R0
T4 sequence (Q9Y3R0 999-1096, limits assumed, looked up): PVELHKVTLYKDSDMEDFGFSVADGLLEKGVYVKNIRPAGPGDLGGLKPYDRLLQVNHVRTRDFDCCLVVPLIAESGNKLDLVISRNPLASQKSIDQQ

TJP1_3, Q07157 = target: TJP1_3, Q07157
Sequence of TJP1_3, Q07157 (Q07157 416-512): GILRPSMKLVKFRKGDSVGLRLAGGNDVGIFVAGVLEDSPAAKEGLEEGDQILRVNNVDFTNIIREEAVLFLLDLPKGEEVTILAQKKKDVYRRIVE

Inadl_5, Q8NI35 = target: Inadl_5, Q8NI35
Sequence of Inadl_5, Q8NI35 (Q8NI35 673-780): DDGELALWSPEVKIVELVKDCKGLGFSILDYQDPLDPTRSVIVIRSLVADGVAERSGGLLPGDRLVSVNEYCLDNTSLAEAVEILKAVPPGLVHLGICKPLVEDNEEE

Inadl_6, Q8NI35 = target: Inadl_6, Q8NI35
Sequence of Inadl_6, Q8NI35 (Q8NI35 1058-1167): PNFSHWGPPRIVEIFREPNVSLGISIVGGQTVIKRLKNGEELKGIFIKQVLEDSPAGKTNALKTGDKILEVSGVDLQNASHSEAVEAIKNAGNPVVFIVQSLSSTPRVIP

MAGI2_5, Q86UL8 = target: MAGI2_5, Q86UL8
Sequence of MAGI2_5, Q86UL8 (Q86UL8 915-1017): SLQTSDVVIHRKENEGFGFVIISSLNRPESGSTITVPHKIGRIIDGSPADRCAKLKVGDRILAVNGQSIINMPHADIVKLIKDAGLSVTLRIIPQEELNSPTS

Inadl_9, Q8NI35 = target: Inadl_9, Q8NI35
Sequence of Inadl_9, Q8NI35 (Q8NI35 1530-1615): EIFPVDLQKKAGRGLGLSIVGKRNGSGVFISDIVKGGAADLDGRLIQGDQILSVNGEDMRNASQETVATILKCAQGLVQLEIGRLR

MPDZ_5, O75970 = target: T5, MPDZ_5, O75970
T5 sequence (O75970 695-796, limits assumed, looked up): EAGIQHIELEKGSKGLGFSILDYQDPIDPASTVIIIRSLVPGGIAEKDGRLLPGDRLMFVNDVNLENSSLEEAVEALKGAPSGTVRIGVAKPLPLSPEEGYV

DLG3_2, Q92796 = target: T6, DLG3_2, Q92796
T6 sequence (Q92796 221-321, limits assumed, looked up): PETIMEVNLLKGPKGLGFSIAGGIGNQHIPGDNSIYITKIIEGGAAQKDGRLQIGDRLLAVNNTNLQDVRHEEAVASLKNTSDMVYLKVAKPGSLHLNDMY

LRRC7, Q96NW7 = target: T7, LRRC7, Q96NW7
T7 sequence (Q96NW7 1440-1537, limits assumed, looked up): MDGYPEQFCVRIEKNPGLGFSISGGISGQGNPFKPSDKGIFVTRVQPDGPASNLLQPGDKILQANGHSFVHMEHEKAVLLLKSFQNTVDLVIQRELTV

PARD3_3, Q8TEW0 = target: PARD3_3, Q8TEW0
Sequence of PARD3_3, Q8TEW0 (Q8TEW0 582-685): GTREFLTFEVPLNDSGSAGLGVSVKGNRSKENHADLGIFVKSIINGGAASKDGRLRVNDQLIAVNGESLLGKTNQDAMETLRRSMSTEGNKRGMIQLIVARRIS

MPP7, Q5T2T1 = target: T8, MPP7, Q5T2T1
T8 sequence (Q5T2T1 134-230, limits assumed, looked up): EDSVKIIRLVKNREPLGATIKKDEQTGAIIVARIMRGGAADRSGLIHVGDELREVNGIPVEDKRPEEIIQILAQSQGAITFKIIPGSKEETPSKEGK

GRIP2_3, Q9C0E4 = target: GRIP2_3, Q9C0E4
Sequence of GRIP2_3, Q9C0E4 (Q9C0E4 238-339): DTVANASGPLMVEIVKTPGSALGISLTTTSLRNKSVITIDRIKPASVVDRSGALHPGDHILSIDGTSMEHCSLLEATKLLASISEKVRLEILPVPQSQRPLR

FRMPD1, Q5SYB0 = target: T9, FRMPD1, Q5SYB0
T9 sequence (Q5SYB0 52-145, limits assumed, looked up): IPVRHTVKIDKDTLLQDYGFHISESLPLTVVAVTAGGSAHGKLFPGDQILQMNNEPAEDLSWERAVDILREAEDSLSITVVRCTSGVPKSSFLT

DLG2_2, Q15700 = target: DLG2_2, Q15700
Sequence of DLG2_2, Q15700 (Q15700 189-283): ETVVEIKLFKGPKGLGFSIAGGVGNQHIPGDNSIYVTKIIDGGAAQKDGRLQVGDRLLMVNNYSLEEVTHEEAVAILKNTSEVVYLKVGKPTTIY

ARHGEF12, Q9NZN5-2 = target: ARHGEF12, Q9NZN5-2
Sequence of ARHGEF12, Q9NZN5-2 (Q9NZN5 other isoform, or with tags, fused parts or gaps): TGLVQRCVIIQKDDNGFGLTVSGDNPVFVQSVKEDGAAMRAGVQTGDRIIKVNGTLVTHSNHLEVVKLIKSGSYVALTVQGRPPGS

Inadl_4, Q8NI35 = target: Inadl_4, Q8NI35
Sequence of Inadl_4, Q8NI35 (Q8NI35 547-651): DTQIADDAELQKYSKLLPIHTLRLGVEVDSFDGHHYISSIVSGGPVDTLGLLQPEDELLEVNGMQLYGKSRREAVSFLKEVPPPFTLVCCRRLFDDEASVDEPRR

[1] = plain residues with an end cap or a label only (N-terminal biotin on a linker: ttds)
[2] = plain residues with an end cap or a label only (N-terminal biotin on a linker: ahx)

Measured: pKd

Sequence of MAGI1_2, Q96QZ7 (Q96QZ7 456-580): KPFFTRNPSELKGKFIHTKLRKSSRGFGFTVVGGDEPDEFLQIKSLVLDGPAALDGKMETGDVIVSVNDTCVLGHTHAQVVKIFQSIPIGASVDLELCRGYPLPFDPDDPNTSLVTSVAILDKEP
Sequence of TJP2_1, Q9UDY2 (Q9UDY2 24-128): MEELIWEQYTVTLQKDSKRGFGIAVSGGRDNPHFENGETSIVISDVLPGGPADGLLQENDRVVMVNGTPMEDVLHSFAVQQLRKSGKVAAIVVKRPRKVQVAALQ

B1: RASSF6, Q6ZTQ3 (peptide)
chain: KLVIKTETTV
3.77: MAGI2_5, Q86UL8; [1]
5.55: DLG1_2, Q12959; [1]
4.82: MAGI1_2, Q96QZ7; [1]
5.04: DLG4_1, P78352; [1]
3.81: GORASP2, Q9H8Y8; [1]
5.53: DLG3_2, Q92796; [1]
3.72: GRIP1_7, Q9Y3R0; [1]
below the threshold: TJP2_1, Q9UDY2; [1] | LAP2, Q96RT1; [1] | TJP1_2, Q07157; [1] | GRIP1_3, Q9Y3R0; [1] | PCLO, Q9Y6V0; [1] | FRMPD3, Q5JV73; [1] | TJP1_3, Q07157; [1] | Inadl_5, Q8NI35; [1] | Inadl_6, Q8NI35; [1] | MPDZ_5, O75970; [1] | LRRC7, Q96NW7; [1] | PARD3_3, Q8TEW0; [1] | MPP7, Q5T2T1; [1] | GRIP2_3, Q9C0E4; [1] | FRMPD1, Q5SYB0; [1] | Inadl_4, Q8NI35; [1]
3.54: Inadl_9, Q8NI35; [1]
3.46: RAPGEF6, Q8TEU7; [1]
3.82: ARHGEF12, Q9NZN5-2; [1]
5.24: DLG2_2, Q15700; [1]
3.53: GOPC, Q9HD26; [1]

B2: FZD7, O75084 (peptide)
chain: SHSSKGETAV
below the threshold: RAPGEF6, Q8TEU7; [1] | GOPC, Q9HD26; [1] | TJP2_1, Q9UDY2; [1] | TJP1_2, Q07157; [1] | GRIP1_3, Q9Y3R0; [1] | PCLO, Q9Y6V0; [1] | FRMPD3, Q5JV73; [1] | GRIP1_7, Q9Y3R0; [1] | TJP1_3, Q07157; [1] | Inadl_5, Q8NI35; [1] | Inadl_6, Q8NI35; [1] | MAGI2_5, Q86UL8; [1] | Inadl_9, Q8NI35; [1] | MPDZ_5, O75970; [1] | LRRC7, Q96NW7; [1] | PARD3_3, Q8TEW0; [1] | MPP7, Q5T2T1; [1] | Inadl_4, Q8NI35; [1]
4.78: DLG1_2, Q12959; [1]
3.6: FRMPD1, Q5SYB0; [1]
3.9: MAGI1_2, Q96QZ7; [1]
4.53: DLG3_2, Q92796; [1]
4.04: LAP2, Q96RT1; [1]
3.66: GORASP2, Q9H8Y8; [1]
4.4: DLG4_1, P78352; [1]
3.97: ARHGEF12, Q9NZN5-2; [1]
4.55: DLG2_2, Q15700; [1]
3.55: GRIP2_3, Q9C0E4; [1]

B3: USH1C, Q9Y6N9 (peptide)
chain: KEYDDELTFF
below the threshold: RAPGEF6, Q8TEU7; [2] | GOPC, Q9HD26; [2] | TJP2_1, Q9UDY2; [2] | MAGI1_2, Q96QZ7; [2] | LAP2, Q96RT1; [2] | TJP1_2, Q07157; [2] | DLG4_1, P78352; [2] | GRIP1_3, Q9Y3R0; [2] | DLG1_2, Q12959; [2] | PCLO, Q9Y6V0; [2] | GRIP1_7, Q9Y3R0; [2] | TJP1_3, Q07157; [2] | Inadl_5, Q8NI35; [2] | Inadl_9, Q8NI35; [2] | MPDZ_5, O75970; [2] | LRRC7, Q96NW7; [2] | MPP7, Q5T2T1; [2] | GRIP2_3, Q9C0E4; [2] | FRMPD1, Q5SYB0; [2] | DLG2_2, Q15700; [2] | ARHGEF12, Q9NZN5-2; [2] | Inadl_4, Q8NI35; [2]
3.96: MAGI2_5, Q86UL8; [2]
3.71: Inadl_6, Q8NI35; [2]
3.61: DLG3_2, Q92796; [2]
5.09: PARD3_3, Q8TEW0; [2]
4.7: FRMPD3, Q5JV73; [2]
3.57: GORASP2, Q9H8Y8; [2]

B4: GPR6, P46095 (peptide)
chain: PFRSRSPSEV
3.87: DLG1_2, Q12959; [1]
3.47: Inadl_9, Q8NI35; [1]
3.81: GORASP2, Q9H8Y8; [1]
4.29: Inadl_5, Q8NI35; [1]
3.63: GRIP1_7, Q9Y3R0; [1]
below the threshold: RAPGEF6, Q8TEU7; [1] | GOPC, Q9HD26; [1] | TJP2_1, Q9UDY2; [1] | MAGI1_2, Q96QZ7; [1] | LAP2, Q96RT1; [1] | TJP1_2, Q07157; [1] | DLG4_1, P78352; [1] | GRIP1_3, Q9Y3R0; [1] | PCLO, Q9Y6V0; [1] | FRMPD3, Q5JV73; [1] | TJP1_3, Q07157; [1] | Inadl_6, Q8NI35; [1] | MAGI2_5, Q86UL8; [1] | MPDZ_5, O75970; [1] | DLG3_2, Q92796; [1] | LRRC7, Q96NW7; [1] | PARD3_3, Q8TEW0; [1] | MPP7, Q5T2T1; [1] | GRIP2_3, Q9C0E4; [1] | FRMPD1, Q5SYB0; [1] | DLG2_2, Q15700; [1] | ARHGEF12, Q9NZN5-2; [1] | Inadl_4, Q8NI35; [1]

Source: article PMC9482650, “Quantitative fragmentomics allow affinity mapping of interactomes” (Nature Communications, 2022)
